From US20240400685A1 (Genmab, published 2024)

B1: epcoritamab CIEX-HPLC pre-acidic 1 fraction (bispecific antibody, human IgG1, kappa, lambda)
heavy 1: not shown
light 1: not shown
heavy 2: EVQLVESGGGLVQPDRSLRLSCAASGFTFHDYAMHWVRQAPGKGLEWVSTISWNSGTIGYADSVKGRFTISRDNAKNSLYLQMNSLRAEDTALYYCAKDIQYGNYYYGMDVWGQGTTVTVSSASTKGPSVFPLAPSSKSTSGGTAALGCLVKDYFPEPVTVSWNSGALTSGVHTFPAVLQSSGLYSLSSVVTVPSSSLGTQTYICNVNHKPSNTKVDKRVEPKSCDKTHTCPPCPAPEFEGGPSVFLFPPKPKDTLMISRTPEVTCVVVAVSHEDPEVKFNWYVDGVEVHNAKTKPREEQYNSTYRVVSVLTVLHQDWLNGKEYKCKVSNKALPAPIEKTISKAKGQPREPQVYTLPPSREEMTKNQVSLTCLVKGFYPSDIAVEWESNGQPENNYKTTPPVLDSDGSFFLYSRLTVDKSRWQQGNVFSCSVMHEALHNHYTQKSLSLSPG
light 2: not shown
modifications: N103 deamidated (49.9 rel %); N106 deamidated (15.1 rel %); residual signal peptide SEA before N-terminal E1 (42.9 rel %); trace levels of a 3005a HC fragment around N103/N106
B2: epcoritamab CIEX-HPLC acidic 2b fraction (bispecific antibody, human IgG1, kappa, lambda)
heavy 1: not shown
light 1: not shown
heavy 2: B1 heavy 2
light 2: not shown
modifications: N106 deamidated (61.4 rel %); N103 deamidated (5.8 rel %); non-consensus glycosylation G2F (3.4 rel %) and A1F at N106; residual signal peptide SEA before N-terminal E1 (12.1 rel %)
B3: epcoritamab CIEX-HPLC acidic 2a fraction (bispecific antibody, human IgG1, kappa, lambda)
heavy 1: not shown
light 1: not shown
heavy 2: B1 heavy 2
light 2: not shown
modifications: N103 deamidated (29.6 rel %); N106 deamidated (22.6 rel %); non-consensus glycosylation A1F at N106 (15.0 rel %); residual signal peptide SEA before N-terminal E1 (26.9 rel %)
B4: epcoritamab CIEX-HPLC acidic 3 fraction (bispecific antibody, human IgG1, kappa, lambda)
heavy 1: not shown
light 1: not shown
heavy 2: B1 heavy 2
light 2: not shown
modifications: N106 deamidated (76.0 rel %); trace levels of N103 deamidation
B5: epcoritamab CIEX-HPLC acidic 1 fraction (bispecific antibody, human IgG1, kappa, lambda)
heavy 1: not shown
light 1: not shown
heavy 2: B1 heavy 2
light 2: not shown
modifications: N103 deamidated (85.3 rel %); residual signal peptide SEA before N-terminal E1 (13.0 rel %)

These binders were tested against human CD3 epsilon (human, UniProt P07766 23-207) (assay: cell-based or functional assay).
Chain of human CD3 epsilon (P07766 23-207): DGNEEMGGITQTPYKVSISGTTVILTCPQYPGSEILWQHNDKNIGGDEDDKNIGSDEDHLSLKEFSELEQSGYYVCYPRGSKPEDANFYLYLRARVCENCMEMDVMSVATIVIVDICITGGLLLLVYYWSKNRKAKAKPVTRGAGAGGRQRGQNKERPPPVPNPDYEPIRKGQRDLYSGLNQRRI

| Binder | Biological Activity (rel %), T-cell activation assay |
| --- | --- |
| B1 | 6 rel % |
| B2 | 28 rel % |
| B3 | 25 rel % |
| B4 | 90 rel % |
| B5 | 9 rel % |
